Laboratory results published in paper PMC7277749, “Evaluation of Aptamers as Affinity Reagents for an Enhancement of SRM-Based Detection of Low-Abundance Proteins in Blood Plasma”.

Target: SMAD4 (rSMAD4) (UniProt Q13485 1-552)
Assay: MST; 100 nM aptamer; FAM label inferred for MST; MST: 20 mM Tris-HCl pH 7.4, 5 mM KCl, 500 mM NaCl, temperature not stated; pull-down: plasma diluted twice with 10 mM Tris-HCl pH 7.4, 150 mM NaCl plus 0.85 M NaCl, RT, 30 min
Conditions: protein: recombinant; tags: N-terminal His6; label: 3'-FAM; hairpin, 16 bp stem, TTTT loop, 3' A5 tail

Sequence of SMAD4 (rSMAD4) (Q13485 whole entry): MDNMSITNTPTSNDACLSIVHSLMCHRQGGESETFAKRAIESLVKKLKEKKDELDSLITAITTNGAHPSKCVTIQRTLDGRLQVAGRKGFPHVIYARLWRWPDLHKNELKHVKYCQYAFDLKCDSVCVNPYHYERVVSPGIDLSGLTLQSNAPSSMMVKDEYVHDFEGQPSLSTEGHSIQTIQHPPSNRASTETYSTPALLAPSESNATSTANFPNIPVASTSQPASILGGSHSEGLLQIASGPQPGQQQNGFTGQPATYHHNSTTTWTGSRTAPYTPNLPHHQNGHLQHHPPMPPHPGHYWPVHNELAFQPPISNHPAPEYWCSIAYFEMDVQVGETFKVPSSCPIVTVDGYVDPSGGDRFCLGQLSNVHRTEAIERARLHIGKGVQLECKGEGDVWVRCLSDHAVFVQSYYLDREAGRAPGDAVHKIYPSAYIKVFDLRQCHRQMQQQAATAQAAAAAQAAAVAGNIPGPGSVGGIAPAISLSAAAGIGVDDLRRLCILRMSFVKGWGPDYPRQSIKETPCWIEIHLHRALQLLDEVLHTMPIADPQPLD

## CGAAGTCTAGACAGCGTTTTCGCTGTCTAGACTTCGAAAAA (structured_DNA) [Anti-SMAD4 aptamer, 3'-FAM]
  Kd: 45 ± 7 nM
